Like-named read-outs stand apart in the source and are kept apart here.
Tests used:
[1] = target: cynomolgus monkey NKp46 (full length, on cells) (cynomolgus monkey) (UniProt Q95JB9); experiment: flow cytometry on cynomolgus monkey NKp46-CHOK1 cells
[2] = target: cynomolgus monkey NKp46 (full length, on cells) (cynomolgus monkey) (UniProt Q95JB9); experiment: as above; remark: listed apart in the source
[3] = target: T1, human NKp46 (full length, on cells) (human, UniProt O76036 22-304); experiment: flow cytometry on human NKp46-CHOK1 cells
T1 sequence (O76036 22-304 Q82K): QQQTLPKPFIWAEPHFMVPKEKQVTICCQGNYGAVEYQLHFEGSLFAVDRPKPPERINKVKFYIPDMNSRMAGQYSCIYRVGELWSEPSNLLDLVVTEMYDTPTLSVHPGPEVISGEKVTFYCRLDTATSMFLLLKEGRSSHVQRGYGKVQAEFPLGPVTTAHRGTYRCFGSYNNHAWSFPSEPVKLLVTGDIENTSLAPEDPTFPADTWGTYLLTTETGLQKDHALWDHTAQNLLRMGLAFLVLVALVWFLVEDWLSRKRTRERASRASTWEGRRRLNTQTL
Protocol: (§1) The stable human NKp46-CHOK1 and cynomolgus monkey NKp46-CHOK1 cell lines obtained in Example 2 were cultured, the cells were digested with 0.25% pancreatic enzyme EDTA for about 5 minutes, and the digestion was terminated with the complete medium. After centrifugation at 1,500 rpm for 5 minutes, the supernatant was discarded, the precipitated cells were resuspended with PBS containing 1% BSA and counted. The cell density was adjusted to 1E6/mL and seeded in a corning-3799 96-well culture plate at 100 μL/well. Aftering centrifuging at 1,500 rpm for 5 minutes, the supernatant was discarded and the precipitate was set aside at 4° C. The antibody solutions were prepared with PBS containing 1% BSA, wherein the antibody solution has an initial concentration was 100 nM, then diluted in 10-fold to obtain 7 gradients: 10⁻⁴ nM, 10⁻³ nM, 10⁻² nM, 10⁻¹ nM, […], and 10² nM. The prepared antibody solutions were used to resuspend the cells, 100 μL/well. The resuspended cell culture plates were incubated in a 4° C. freezer for 1 h. After centrifugation at 1500 rpm for 5 minutes, the supernatant was discarded. The precipitate was washed with 160 μL of PBS containing 1% BSA, the supernatant was discarded, and the cells were stored for later use.
(§2) The Secondary antibody (goat anti human IgG Fc PE) solution was prepared with PBS containing 1% BSA, and diluted 1:200. The cells were resuspended with the prepared secondary antibody solution, 100 μL/well, incubated in a 4° C. freezer for 0.5 h. After centrifugation at 1,500 rpm for 5 minutes, the supernatant was discarded, the precipitated cells were washed with 160 μL of PBS containing 1% BSA, the supernatant was discarded, the cells were resuspended with 100 μL of PBS containing 1% BSA, and filtered in 300-mesh gauze. The mean fluorescence intensity of antibody binding to cells was then analyzed on a flow cytometer. The FCS file was exported from the flow cytometer, the mean fluorescence intensity (hereinafter referred to as MFI) of PE channel was analyzed with Flowjo software, and the mean fluorescence intensity obtained was introduced into the Graphpad to analyze the half binding concentration (hereinafter referred to as EC₅₀) and the top mean fluorescence intensity (Top MFI) of the antibody and the cell.

[4] = target: T2, Human NKp46 antigen for immunization, screening, and testing (Kactus, NKP-HM146) (human, UniProt O76036 22-255); experiment: SPR (Biacore 8K), antibody captured on anti-human Fc, NKp46 as analyte, 1:1 fit
T2 construct: Bought protein; also called human NKp46 antigen protein; human NKp46 protein
T2 sequence (O76036 other isoform, or with tags, fused parts or gaps limits assumed): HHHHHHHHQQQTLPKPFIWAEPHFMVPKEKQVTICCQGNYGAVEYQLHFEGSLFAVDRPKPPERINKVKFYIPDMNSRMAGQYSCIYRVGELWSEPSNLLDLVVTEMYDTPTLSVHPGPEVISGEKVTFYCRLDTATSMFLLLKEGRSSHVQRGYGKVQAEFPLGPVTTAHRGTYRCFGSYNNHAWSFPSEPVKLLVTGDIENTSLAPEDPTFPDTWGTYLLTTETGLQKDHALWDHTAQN
Protocol: Human NKp46 was diluted in two-fold to a serial concentration (400 nM-3.125 nM), then combined for 90 s at a flow rate of 50 μL/min, and dissociated for 500 s.
(§3) At the end of each round of experiments, 3 M MgCl₂ solution was used to rinse at a flow rate of 30 μL/min for 30 s, and the captured antibody was removed along with the antigen to complete the regeneration of the chip. The raw data were analyzed using Biacore Insight Evaluation Software (version 3.0.12.15655) software and (1:1) Langmuir model was fit to the data. Compared with the anti-NKp46 humanized antibody and the corresponding chimeric antibody, the affinity to the human NKp46 antigen protein is mostly maintained.

[5] = target: T1, human NKp46 (full length, on cells); experiment: cell-based or functional assay
[6] = target: T3, Cynomolgus monkey NKp46 for immunization, screening, and testing (Kactus, NKP-CM146) (cynomolgus monkey, UniProt Q95JB9 22-254); experiment: SPR (Biacore 8K), antibody captured on anti-human Fc, NKp46 as analyte, 1:1 fit
T3 construct: Bought protein; also called monkey NKp46 antigen protein; cynomolgus monkey NKp46 antigen
T3 sequence (Q95JB9 other isoform, or with tags, fused parts or gaps limits assumed): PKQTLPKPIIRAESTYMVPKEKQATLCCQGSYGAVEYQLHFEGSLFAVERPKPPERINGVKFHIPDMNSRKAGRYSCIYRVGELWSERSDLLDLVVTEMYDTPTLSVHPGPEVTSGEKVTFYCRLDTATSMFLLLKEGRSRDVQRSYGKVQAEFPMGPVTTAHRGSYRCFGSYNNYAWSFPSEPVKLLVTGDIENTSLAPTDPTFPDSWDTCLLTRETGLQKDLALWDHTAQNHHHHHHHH
Protocol: Cynomolgus monkey NKp46 was diluted in two-fold to a serial concentration (400 nM-3.125 nM), combined for 90 s at a flow rate of 50 μL/min and dissociated for 500 s.
as §3

[7] = target: T4, cynomolgus monkey NKp46 (full length, on cells) (cynomolgus monkey, UniProt Q95JB9 22-306); experiment: flow cytometry on cynomolgus monkey NKp46-CHOK1 cells
T4 construct: also called cynomolgus monkey NKp46-CHOK1; cynomolgus NKp46-CHOK1
T4 sequence (Q95JB9 22-306): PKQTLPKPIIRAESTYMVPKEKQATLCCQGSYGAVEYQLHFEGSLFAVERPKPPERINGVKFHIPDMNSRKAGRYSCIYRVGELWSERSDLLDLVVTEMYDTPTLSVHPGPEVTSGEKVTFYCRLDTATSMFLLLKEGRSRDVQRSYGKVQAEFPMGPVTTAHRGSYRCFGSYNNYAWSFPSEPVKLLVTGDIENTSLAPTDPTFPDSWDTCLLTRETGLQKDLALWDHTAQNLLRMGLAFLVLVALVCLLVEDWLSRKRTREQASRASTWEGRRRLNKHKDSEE
Protocol: as §1, §2

cynomolgus monkey NKp46 (full length, on cells) (cynomolgus monkey), sequence (Q95JB9 22-306): as above

Top MFI [1]	Top MFI [2]	Top MFI [3]	Top MFI ([3]; record 2)	Kd [4]	koff [4]	kon [4]	EC50 [3]	EC50 of NK cell activation (CD107a-positive NK cells, plate-coated antibody) [5]	Top mean fluorescence intensity (Top MFI), NK cell activation (CD107a) [5]	Kd [6]	koff [6]	kon [6]	EC50 [7]	Top MFI [7]	Molecule
118	86	223	98												Anti-HEL human IgG1 LALA (Biointron, Cat. number B109802) (antibody)
		5940		10.9 nM	0.000959 s⁻¹	87800 M⁻¹ s⁻¹	0.203 nM	0.63 nM	35.3	7.69 nM	0.000596 s⁻¹	77500 M⁻¹ s⁻¹	2.11 nM	3270	H2-PA31 humanized antibody (antibody, human IgG1, V domains shown, not shown: constant region of human IgG1) VH: EVQLVESGGGLVQPGGSLRLSCAVSGRTFSRLPMGWFRQAPGKGLEFVAAISWSSSTTYYADSVKGRFTISRDNSKNTAYLQMNSLRAEDTAVYYCAAVGGSLDYSATVVYTAARAYADWGQGTLVTVSS
		5610		24.1 nM	0.00154 s⁻¹	63800 M⁻¹ s⁻¹	0.274 nM	0.75 nM	39.1	7.34 nM	0.000563 s⁻¹	76700 M⁻¹ s⁻¹	2.76 nM	3590	H2-PA45 humanized antibody (antibody, V domains shown, not shown: constant region of human IgG1) VH: EVQLVESGGGLVQPGGSLRLSCAASGRTFSRLPMAWFRQAPGKGLEFVAAISWSGGSTYYADSMKGRFTISRDNSKNTAYLQMNSLRAEDTAVYYCAAVGDSAPYSATIVYTDARAYAYWGQGTLVTVSS

— US20240141038A1 (SHANGHAI QILU PHARMACEUTICAL RESEARCH AND DEVELOPMENT CENTRE, published 2024)
